Target: HIV-1 P7L-S40A-Gag, full-length (HIV-1)
Experiment: two-hybrid; Matchmaker GAL4 system, S. cerevisiae Y190, quantitative liquid beta-galactosidase assay; units normalized to P7L with Alix (panel B) or WT Gag with Alix (panel C)

With “full-length Alix (from UniProt Q8WUM4 1-868) (natural protein)” the fold increase of binding (beta-galactosidase units) against P7L-Gag with Alix was 7 fold.
